Experimental findings from article PMC11187536 are described below.

Experiment [1] concerns the target soluble variant surface glycoprotein (sVSG) MITat1.2 (Trypanosoma brucei (endogenous in cell line 13-90)). Briefly: SEC; Superdex 200 Increase 10/300 GL, 20 mM sodium acetate pH 5.2, 150 mM NaCl, 100 µl sample at 5 mg/ml, 1 ml/min; self-association, dimer.
The target is the same in experiment [2]. Briefly: SEC; Superdex 200 Increase 10/300 GL, 50 mM HEPES pH 7.4, 150 mM NaCl, 100 µl sample at 5 mg/ml, 1 ml/min; self-association, dimer.

With “soluble variant surface glycoprotein (sVSG) MITat1.2 (natural protein)”, the stoichiometry N in experiment [1] and in experiment [2] was 2 in each case.
